The test concerns the target GW182 (TNRC6A), short isoform (mouse (endogenous in OT-I CD8+ T cells)). Nature of the test: co-IP; anti-GW182 antibody on Protein G Dynabeads; lysates of naive (d0) and d6 activated OT-I CD8+ T cells, 2 x 10^7 cells per IP; bound and unbound fractions blotted with Ago2 and GW182 antibodies.

Regarding “Argonaute 2 (Ago2) (from UniProt Q8CJG0 1-860) (natural protein)”, the percent of Ago2 associated with immunoprecipitated GW182 (d6) was 50%.

The values are drawn from paper PMC10726160.
